According to US20250171536A1 (CSL INNOVATION, published 2025):
Values belong to the binder of their own block, whether it stands above or below them.

How the values were obtained:
[1] = biological target: Human CD117 (c-kit), cell-surface expressed (human, UniProt P10721 26-976); experiment: cell-based or functional assay
[2] = biological target: T1, Soluble 8xHis-tagged N-terminal fragment of human CD117 (HuCD117 1-307) (human, UniProt P10721 26-307); experiment: SPR Biacore 4000, antibody captured on protein G, His-tagged fragment analyte, 1:1 fit, N=1
T1 construct: This range counts from the precursor start, so a signal peptide is probably cleaved in the secreted protein; also called N-terminal domain; soluble N-terminal; not shown: 8xHis tag
T1 sequence (P10721 26-307): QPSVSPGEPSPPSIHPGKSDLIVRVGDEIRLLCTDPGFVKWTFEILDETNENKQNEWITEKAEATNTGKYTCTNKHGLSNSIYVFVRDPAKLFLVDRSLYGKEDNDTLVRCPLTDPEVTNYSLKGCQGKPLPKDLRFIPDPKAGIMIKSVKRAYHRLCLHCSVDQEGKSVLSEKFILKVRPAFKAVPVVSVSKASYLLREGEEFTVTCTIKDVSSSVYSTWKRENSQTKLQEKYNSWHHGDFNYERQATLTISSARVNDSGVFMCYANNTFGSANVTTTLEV

[3] = biological target: T2, Soluble 8xHis-tagged C-terminal fragment of human CD117 (HuCD117 308-524) (human, UniProt P10721 308-524); experiment: SPR (Biacore 4000), IgG4 antibody captured on protein G, soluble His-tagged fragment injected at 25, 75, 225 nM
T2 construct: C-terminal part of the extracellular region; also called C-terminal domain; not shown: 8xHis tag
T2 sequence (P10721 308-524): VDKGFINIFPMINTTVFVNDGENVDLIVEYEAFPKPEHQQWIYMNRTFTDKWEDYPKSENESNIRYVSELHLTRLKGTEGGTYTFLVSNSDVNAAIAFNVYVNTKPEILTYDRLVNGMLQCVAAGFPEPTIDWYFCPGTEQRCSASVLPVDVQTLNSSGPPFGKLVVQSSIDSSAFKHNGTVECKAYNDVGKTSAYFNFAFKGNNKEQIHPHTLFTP

[4] = biological target: N-terminal domain of human CD117, soluble (HuCD117 1-308) (human, UniProt P10721 26-308); experiment: SPR Biacore 4000, captured antibody, soluble CD117 analyte, 1:1 fit;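 also: antibodies captured on CM5 chips via goat anti-human IgG or IgA, CD117 analyte in two-fold series 0.8–200 nM, run at pH 7.3 and 37 °C, double-referenced sensorgrams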
Sequence of N-terminal domain of human CD117, soluble (HuCD117 1-308) (P10721 26-308): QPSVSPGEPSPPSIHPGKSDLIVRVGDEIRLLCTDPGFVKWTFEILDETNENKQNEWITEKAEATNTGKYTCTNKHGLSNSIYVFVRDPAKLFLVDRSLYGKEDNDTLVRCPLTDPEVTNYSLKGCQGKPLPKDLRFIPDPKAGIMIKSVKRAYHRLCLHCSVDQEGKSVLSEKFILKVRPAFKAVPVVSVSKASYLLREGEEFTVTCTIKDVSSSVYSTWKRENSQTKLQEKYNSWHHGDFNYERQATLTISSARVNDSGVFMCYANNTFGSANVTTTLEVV
Method: (§1) Biacore 4000 was used for all binding analyses. Experiments were performed at pH 7.3, 37° C. and under flow rate of 30 μL/min. Human anti-CD117 antibodies were surface captured using either polyclonal goat anti-human IgG or IgA antibodies directly immobilised onto the carboxymethyl dextran surface of CM5 sensorchips to approximately 13,000 RU using standard NHS/EDC chemistry at pH 5. The immobilised antibody surface was pre-conditioned with ten injections of human polyclonal IgG (Privigen 60s, 10 μg/mL) each followed by a regeneration cycle with 100 mM H3PO4.
(§2) A total of 18 anti-CD117 antibodies (2 μg/mL) were tested as captured ligands against four soluble mammalian CD117 receptor variants: the N-terminal domain of human CD117 (HuCD1₁₇₁₋₃₀₈), full length human CD117 (HuCD1₁₇₁₋₅₂₄), cyno CD117 (cynoCD117₁₋₅₂₀), and murine CD117 (MuCD117₁₋₅₂₇).
(§3) CD117 proteins were prepared in two-fold dilutions ranging from 0.8 to 200 nM. Anti-CD117 antibodies huAb249, huAb85, huCK6 and huhzSR1 were used as positive controls. BM4 was prepared in an IgG and IgA2 format and used as negative control. Binding affinities were calculated from sensorgrams double-referenced using reference surface and blank buffer injection data gathered within each experiment.

[5] = biological target: T3, Full length human CD117, soluble (HuCD117 1-524) (human, UniProt P10721 26-524); experiment: as above
T3 construct: also called full-length protein
T3 sequence (P10721 26-524): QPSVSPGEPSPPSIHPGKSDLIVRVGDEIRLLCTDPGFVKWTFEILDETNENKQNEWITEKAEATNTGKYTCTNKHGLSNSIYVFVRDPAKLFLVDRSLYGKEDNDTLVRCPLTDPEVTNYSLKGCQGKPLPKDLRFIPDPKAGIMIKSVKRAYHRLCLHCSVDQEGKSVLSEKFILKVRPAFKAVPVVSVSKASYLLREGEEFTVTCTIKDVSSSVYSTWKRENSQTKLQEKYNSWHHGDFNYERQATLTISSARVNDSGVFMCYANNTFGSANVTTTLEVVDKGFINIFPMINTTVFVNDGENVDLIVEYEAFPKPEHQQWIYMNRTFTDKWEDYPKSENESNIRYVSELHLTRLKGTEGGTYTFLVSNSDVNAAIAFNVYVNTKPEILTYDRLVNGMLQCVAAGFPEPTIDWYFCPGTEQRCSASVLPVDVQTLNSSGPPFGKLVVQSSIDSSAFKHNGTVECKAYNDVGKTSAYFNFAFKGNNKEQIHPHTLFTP
Method: as §1, §2, §3

[6] = biological target: T4, Cyno CD117, soluble (cynoCD117 1-520) (cynomolgus monkey, UniProt P10721 26-520 (human entry)); experiment: as above
T4 construct: Residues as printed
T4 chain: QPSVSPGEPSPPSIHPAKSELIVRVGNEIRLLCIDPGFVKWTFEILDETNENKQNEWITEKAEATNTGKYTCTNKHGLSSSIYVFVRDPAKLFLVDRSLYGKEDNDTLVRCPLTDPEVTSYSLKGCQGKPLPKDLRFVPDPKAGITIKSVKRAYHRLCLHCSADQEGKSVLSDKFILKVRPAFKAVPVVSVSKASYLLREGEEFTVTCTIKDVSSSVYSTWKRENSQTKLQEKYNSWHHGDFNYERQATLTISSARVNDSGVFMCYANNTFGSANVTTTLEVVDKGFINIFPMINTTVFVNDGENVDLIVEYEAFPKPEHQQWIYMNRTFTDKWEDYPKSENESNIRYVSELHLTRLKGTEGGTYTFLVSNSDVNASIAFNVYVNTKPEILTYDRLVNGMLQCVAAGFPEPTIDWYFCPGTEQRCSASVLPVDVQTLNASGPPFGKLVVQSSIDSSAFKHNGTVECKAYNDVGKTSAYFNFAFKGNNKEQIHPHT
Method: as §1, §2, §3

[7] = biological target: T5, Murine CD117, soluble (MuCD117 1-527) (mouse, UniProt P05532 25-527); experiment: SPR, captured antibody, soluble CD117 analyte
T5 construct: Residues as printed
T5 sequence: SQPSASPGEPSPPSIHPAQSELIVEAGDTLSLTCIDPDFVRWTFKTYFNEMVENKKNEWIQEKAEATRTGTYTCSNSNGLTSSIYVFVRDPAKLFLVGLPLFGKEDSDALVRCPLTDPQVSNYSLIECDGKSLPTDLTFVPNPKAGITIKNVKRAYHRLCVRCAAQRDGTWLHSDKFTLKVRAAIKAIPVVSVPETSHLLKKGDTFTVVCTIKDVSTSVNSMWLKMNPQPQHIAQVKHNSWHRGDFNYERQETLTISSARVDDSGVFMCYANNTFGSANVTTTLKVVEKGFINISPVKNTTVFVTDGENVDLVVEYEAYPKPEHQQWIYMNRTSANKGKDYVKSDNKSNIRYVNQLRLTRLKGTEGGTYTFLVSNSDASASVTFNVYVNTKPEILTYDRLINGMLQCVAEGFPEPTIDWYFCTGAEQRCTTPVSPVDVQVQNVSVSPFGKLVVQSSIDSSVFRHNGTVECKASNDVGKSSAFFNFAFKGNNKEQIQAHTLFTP
Method: as §1, §2, §3

Sequence of Human CD117 (c-kit), cell-surface expressed (P10721 26-976 limits assumed): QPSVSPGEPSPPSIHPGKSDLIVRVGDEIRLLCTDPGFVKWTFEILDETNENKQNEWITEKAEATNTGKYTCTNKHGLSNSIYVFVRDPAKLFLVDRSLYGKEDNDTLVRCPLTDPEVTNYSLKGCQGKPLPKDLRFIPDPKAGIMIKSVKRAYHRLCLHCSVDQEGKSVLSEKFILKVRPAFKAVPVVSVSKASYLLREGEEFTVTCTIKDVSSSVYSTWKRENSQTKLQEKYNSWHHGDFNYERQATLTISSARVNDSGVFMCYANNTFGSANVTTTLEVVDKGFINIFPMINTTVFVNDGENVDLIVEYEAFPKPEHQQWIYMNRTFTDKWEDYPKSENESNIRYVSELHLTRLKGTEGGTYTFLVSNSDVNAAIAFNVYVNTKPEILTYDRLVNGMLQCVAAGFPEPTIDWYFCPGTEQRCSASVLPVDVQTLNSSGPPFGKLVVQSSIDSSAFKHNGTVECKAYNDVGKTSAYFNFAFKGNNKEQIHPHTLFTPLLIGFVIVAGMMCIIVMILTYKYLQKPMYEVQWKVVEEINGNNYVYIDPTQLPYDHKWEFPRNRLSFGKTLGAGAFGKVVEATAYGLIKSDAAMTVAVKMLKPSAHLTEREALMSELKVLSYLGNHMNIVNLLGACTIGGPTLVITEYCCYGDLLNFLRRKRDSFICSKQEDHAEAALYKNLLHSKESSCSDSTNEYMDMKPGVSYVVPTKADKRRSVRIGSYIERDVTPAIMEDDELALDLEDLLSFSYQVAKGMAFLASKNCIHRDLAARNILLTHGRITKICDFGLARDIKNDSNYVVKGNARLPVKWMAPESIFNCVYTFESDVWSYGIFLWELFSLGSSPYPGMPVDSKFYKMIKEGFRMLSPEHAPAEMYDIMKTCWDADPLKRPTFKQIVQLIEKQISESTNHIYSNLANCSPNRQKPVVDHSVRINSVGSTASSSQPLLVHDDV

B1: 3B3 IgA2 anti-CD117 antibody (Example 8) (antibody, V domains shown)
VH: EVQLVESGGGVVQPGRSLRLSCAASGFTFSSYAMHWVRQAPGKGLEWVSVIYSGGSTYYADSVKGRFTISRDNSKNTLYLQMNSLRAEDTAVYYCARDSSGYRGDFDYWGQGTLVTVSS
VL: SYELTQPPSVSVSPGQTASITCSGDKVGAKYVFWYQQKPGQSPVLVVYQDNKRPSGIPERFSGSNSGNTATLTISGTQAMDEADYYCQAWDSSTALYVFGTGTKV
EC50 of trogocytosis (ADCT; DILC18 membrane uptake by neutrophils from CD117-transfected 293 cells) [1]: 0.44 nM
Normalised uptake (B max) in %, ADCT [1]: 51.1%

B2: 3C2 IgA2 anti-CD117 antibody (Example 8) (antibody, V domains shown)
VH: EVQLAESGGDLVQPGGSLRLSCAASGFTFSSYAMSWVRQAPGKGLEWVSAISGSGGSTYYADSVKGRFTISRDNSKNTLYLQMNSLRAEDTAIYYCARDLRVYAMEAFDIWGQGTMVTVSS
VL: SYELTQDPAVSVALGQTVRITCQGDSLRDYYANWFQQKPGQAPLLVIFYDSDRPSGIPERFSGSNSGNTATLTISRVEAGDEADYYCQAWDSSSDHWVFGGGTKL
Normalised uptake (B max) in %, ADCT [1]: 3.38%

B3: 3B2 IgA2 anti-CD117 antibody (Example 8) (antibody, V domains shown)
VH: QVQLQESGPGLVKPSETLSLTCTVSGYSISSGYYWGWIRQPPGKGLEWIGSIYHSGSTYYNPSLKSRVTISVDTSKNQFSLKLSSVTAADTAVYYCARVGVRYFDWLLYGAFDIWGQGTMVTVSS
VL: SYELTQPPSVSVSPGQTATITCSGDKLGETYVHWYQHQSGQSPILVVYQDFKRPSGIPERFSGSNSGNTATLTISGTQAMDEADYYCQAWDSSTAVFGGGTKL
EC50 of trogocytosis (ADCT; DILC18 membrane uptake by neutrophils from CD117-transfected 293 cells) [1]: 4.51 nM
Normalised uptake (B max) in %, ADCT [1]: 42.7%

B4: 4A2 IgA2 anti-CD117 antibody (Example 8) (antibody, V domains shown)
VH: EVQLLESGGGLVQPGGSLRLSCAASGFTFSDYGMSWVRQAPGKGLEWVSAIGYGGGGKYYADSVKGRFTISRDNSKNTLYLQMNSLRAEDTAVYYCAKDTWWLAGLFDYWGQGTLVTVSS
VL: EIVLTQSPGTLSLSPGKRATLSCRASQSVSNSYLAWYQQKPGQPPKLLIYWASTRESGVPDRFSGSGSGTDFTLTISSLQAEDVAVYYCQQYYSTPLTFGGGTKVEIKR
EC50 of trogocytosis (ADCT; DILC18 membrane uptake by neutrophils from CD117-transfected 293 cells) [1]: 0.64 nM
Normalised uptake (B max) in %, ADCT [1]: 95.3%

B5: hu3B3 IgG4 (hu3B3-hLG4) (antibody)
heavy: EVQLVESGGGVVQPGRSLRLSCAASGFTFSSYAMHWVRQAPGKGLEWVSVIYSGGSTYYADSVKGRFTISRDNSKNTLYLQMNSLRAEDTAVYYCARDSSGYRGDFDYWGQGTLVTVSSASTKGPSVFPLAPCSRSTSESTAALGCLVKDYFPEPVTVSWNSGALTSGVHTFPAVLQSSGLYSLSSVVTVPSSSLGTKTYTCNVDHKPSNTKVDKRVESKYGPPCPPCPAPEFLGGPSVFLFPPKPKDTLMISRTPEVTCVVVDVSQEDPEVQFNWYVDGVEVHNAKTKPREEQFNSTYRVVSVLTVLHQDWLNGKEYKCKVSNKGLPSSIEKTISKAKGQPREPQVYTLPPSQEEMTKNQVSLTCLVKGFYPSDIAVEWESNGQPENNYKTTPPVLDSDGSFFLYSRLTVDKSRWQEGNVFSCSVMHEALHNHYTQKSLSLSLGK
light: SYELTQPPSVSVSPGQTASITCSGDKVGAKYVFWYQQKPGQSPVLVVYQDNKRPSGIPERFSGSNSGNTATLTISGTQAMDEADYYCQAWDSSTALYVFGTGTKVTVLGQPKANPTVTLFPPSSEELQANKATLVCLISDFYPGAVTVAWKADGSPVKAGVETTKPSKQSNNKYAASSYLSLTPEQWKSHRSYSCQVTHEGSTVEKTVAPTECS
Kd [2]: 9 nM
binding result [3]: no binding (tested: 225 nM)

B6: hu3B3 IgA2 (hu3B3-hLhA2 (P221R)) (antibody)
heavy: EVQLVESGGGVVQPGRSLRLSCAASGFTFSSYAMHWVRQAPGKGLEWVSVIYSGGSTYYADSVKGRFTISRDNSKNTLYLQMNSLRAEDTAVYYCARDSSGYRGDFDYWGQGTLVTVSSASPTSPKVFPLSLDSTPQDGNVVVACLVQGFFPQEPLSVTWSESGQNVTARNFPPSQDASGDLYTTSSQLTLPATQCPDGKSVTCHVKHYTNSSQDVTVPCRVPPPPPCCHPRLSLHRPALEDLLLGSEANLTCTLTGLRDASGATFTWTPSSGKSAVQGPPERDLCGCYSVSSVLPGCAQPWNHGETFTCTAAHPELKTPLTANITKSGNTFRPEVHLLPPPSEELALNELVTLTCLARGFSPKDVLVRWLQGSQELPREKYLTWASRQEPSQGTTTFAVTSILRVAAEDWKKGDTFSCMVGHEALPLAFTQKTIDRLAGKPTHVNVSVVMAEVDGTCY
light: B5 light
Kd [4]: 0.49 nM
Kd [5]: 2.5 nM
Kd [6]: 4.4 nM
binding result [7]: no binding (tested: 200 nM (highest CD117 concentration))

Second part, led by results:

Kd [2]: 14 nM
binding result [3]: no binding (tested: 225 nM)
B7: hu3C2 IgG4 (hu3C2-hLG4p) (antibody)
heavy: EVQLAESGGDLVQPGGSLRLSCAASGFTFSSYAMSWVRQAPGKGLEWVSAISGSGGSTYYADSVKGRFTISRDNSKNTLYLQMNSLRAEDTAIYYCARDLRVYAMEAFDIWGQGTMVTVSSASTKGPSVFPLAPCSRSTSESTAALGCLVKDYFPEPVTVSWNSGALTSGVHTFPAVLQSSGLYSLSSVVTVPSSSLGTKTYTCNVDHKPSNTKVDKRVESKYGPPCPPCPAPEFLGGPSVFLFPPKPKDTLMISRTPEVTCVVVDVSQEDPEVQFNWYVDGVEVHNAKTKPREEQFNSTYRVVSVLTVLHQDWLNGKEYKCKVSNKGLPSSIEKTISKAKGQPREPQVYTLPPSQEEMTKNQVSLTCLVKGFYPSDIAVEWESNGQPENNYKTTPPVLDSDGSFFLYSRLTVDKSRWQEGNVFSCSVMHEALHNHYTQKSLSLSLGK
light: SYELTQDPAVSVALGQTVRITCQGDSLRDYYANWFQQKPGQAPLLVIFYDSDRPSGIPERFSGSNSGNTATLTISRVEAGDEADYYCQAWDSSSDHWVFGGGTKLTVLGQPKAAPSVTLFPPSSEELQANKATLVCLISDFYPGAVTVAWKADGSPVKAGVETTKPSKQSNNKYAASSYLSLTPEQWKSHRSYSCQVTHEGSTVEKTVAPTECS

Kd [4]: 2.44 nM
Kd [5]: 9.3 nM
Kd [6]: 20.9 nM
B8: hu3C2 IgA2 (hu3C2-hLhA2 (P221R)) (antibody)
heavy: EVQLAESGGDLVQPGGSLRLSCAASGFTFSSYAMSWVRQAPGKGLEWVSAISGSGGSTYYADSVKGRFTISRDNSKNTLYLQMNSLRAEDTAIYYCARDLRVYAMEAFDIWGQGTMVTVSSASPTSPKVFPLSLDSTPQDGNVVVACLVQGFFPQEPLSVTWSESGQNVTARNFPPSQDASGDLYTTSSQLTLPATQCPDGKSVTCHVKHYTNSSQDVTVPCRVPPPPPCCHPRLSLHRPALEDLLLGSEANLTCTLTGLRDASGATFTWTPSSGKSAVQGPPERDLCGCYSVSSVLPGCAQPWNHGETFTCTAAHPELKTPLTANITKSGNTFRPEVHLLPPPSEELALNELVTLTCLARGFSPKDVLVRWLQGSQELPREKYLTWASRQEPSQGTTTFAVTSILRVAAEDWKKGDTFSCMVGHEALPLAFTQKTIDRLAGKPTHVNVSVVMAEVDGTCY
light: B7 light
binding result [7]: no binding (tested: 200 nM (highest CD117 concentration))

Kd [2]: 49 nM
Kd [4]: 19.9 nM
Kd [5]: 38.3 nM
Kd [6]: 43.4 nM
binding result [3]: no binding (tested: 225 nM)
B9: hu4A2 IgG4 (hu4A2-hKG4p) (antibody)
heavy: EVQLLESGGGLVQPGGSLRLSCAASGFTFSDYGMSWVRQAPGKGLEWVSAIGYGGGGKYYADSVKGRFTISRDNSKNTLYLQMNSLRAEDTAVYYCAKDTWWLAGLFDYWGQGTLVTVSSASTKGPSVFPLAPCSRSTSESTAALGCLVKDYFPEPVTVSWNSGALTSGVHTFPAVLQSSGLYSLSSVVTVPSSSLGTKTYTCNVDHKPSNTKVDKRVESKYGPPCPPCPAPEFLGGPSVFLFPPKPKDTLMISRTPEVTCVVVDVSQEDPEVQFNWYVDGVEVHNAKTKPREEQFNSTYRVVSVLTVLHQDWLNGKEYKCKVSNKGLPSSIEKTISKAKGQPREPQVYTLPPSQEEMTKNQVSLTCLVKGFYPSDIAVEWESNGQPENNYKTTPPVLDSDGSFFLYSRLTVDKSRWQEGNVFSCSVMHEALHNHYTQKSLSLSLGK
light: IVLTQSPGTLSLSPGKRATLSCRASQSVSNSYLAWYQQKPGQPPKLLIYWASTRESGVPDRFSGSGSGTDFTLTISSLQAEDVAVYYCQQYYSTPLTFGGGTKVEIKRTVAAPSVFIFPPSDEQLKSGTASVVCLLNNFYPREAKVQWKVDNALQSGNSQESVTEQDSKDSTYSLSSTLTLSKADYEKHKVYACEVTHQGLSSPVTKSFNRGEC
notes: Human IgG4, kappa
